Laboratory results from patent US20240066137A1 (ONEGENE BIOTECHNOLOGY, published 2024).
Read-outs that look alike come from different tables or passages of the source. Ends that are not written are not given here.

Experiments:
Assay in all cases: cell-based or functional assay
GCG acceptor = GCG acceptor (UniProt P47871 26-477, limits assumed)
GLP-1 acceptor [1] = biological target: T1, GLP-1 acceptor (UniProt P43220 24-463, limits assumed)
GIP acceptor = biological target: T2, GIP acceptor (UniProt P48546 22-466, limits assumed)
T2 sequence (looked up): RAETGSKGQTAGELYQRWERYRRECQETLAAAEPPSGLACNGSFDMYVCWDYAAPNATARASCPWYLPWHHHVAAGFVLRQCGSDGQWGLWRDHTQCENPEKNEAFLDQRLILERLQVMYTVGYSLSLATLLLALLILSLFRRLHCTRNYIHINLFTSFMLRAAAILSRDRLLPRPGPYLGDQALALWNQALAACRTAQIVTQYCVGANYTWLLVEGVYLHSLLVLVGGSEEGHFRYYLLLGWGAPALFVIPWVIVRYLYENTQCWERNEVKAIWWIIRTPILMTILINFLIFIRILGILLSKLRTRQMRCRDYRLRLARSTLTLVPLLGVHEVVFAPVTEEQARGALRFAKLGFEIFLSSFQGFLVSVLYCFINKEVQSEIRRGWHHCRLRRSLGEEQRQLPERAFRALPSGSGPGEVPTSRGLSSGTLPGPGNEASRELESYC

FGFR1/KLB acceptor = FGFR1/KLB acceptor (UniProt P11362 22-822; Q86Z14 1-1044, limits assumed)
Chain of FGFR1/KLB acceptor (P11362 22-822 limits assumed, chain 1 of 2): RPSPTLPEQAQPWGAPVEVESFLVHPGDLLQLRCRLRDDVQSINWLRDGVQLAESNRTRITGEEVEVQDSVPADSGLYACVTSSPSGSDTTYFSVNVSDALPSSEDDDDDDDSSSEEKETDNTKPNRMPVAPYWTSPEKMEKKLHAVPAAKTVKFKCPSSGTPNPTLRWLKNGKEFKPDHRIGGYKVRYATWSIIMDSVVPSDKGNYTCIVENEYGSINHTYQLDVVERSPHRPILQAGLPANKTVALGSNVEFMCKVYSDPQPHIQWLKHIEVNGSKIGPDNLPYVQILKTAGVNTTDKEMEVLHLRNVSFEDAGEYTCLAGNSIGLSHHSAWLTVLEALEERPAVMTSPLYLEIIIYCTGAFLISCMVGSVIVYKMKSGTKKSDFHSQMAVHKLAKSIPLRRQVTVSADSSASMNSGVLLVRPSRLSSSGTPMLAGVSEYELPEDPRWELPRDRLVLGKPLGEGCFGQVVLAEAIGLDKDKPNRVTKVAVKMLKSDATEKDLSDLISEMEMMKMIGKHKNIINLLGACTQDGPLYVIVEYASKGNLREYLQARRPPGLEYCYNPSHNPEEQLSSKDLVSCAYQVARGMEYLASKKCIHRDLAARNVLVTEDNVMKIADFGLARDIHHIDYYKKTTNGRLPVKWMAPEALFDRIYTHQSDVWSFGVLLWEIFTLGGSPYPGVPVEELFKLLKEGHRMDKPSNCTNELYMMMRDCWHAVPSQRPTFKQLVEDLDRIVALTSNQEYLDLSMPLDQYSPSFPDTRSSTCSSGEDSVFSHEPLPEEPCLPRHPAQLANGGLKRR
Chain of FGFR1/KLB acceptor (Q86Z14 whole entry, chain 2 of 2): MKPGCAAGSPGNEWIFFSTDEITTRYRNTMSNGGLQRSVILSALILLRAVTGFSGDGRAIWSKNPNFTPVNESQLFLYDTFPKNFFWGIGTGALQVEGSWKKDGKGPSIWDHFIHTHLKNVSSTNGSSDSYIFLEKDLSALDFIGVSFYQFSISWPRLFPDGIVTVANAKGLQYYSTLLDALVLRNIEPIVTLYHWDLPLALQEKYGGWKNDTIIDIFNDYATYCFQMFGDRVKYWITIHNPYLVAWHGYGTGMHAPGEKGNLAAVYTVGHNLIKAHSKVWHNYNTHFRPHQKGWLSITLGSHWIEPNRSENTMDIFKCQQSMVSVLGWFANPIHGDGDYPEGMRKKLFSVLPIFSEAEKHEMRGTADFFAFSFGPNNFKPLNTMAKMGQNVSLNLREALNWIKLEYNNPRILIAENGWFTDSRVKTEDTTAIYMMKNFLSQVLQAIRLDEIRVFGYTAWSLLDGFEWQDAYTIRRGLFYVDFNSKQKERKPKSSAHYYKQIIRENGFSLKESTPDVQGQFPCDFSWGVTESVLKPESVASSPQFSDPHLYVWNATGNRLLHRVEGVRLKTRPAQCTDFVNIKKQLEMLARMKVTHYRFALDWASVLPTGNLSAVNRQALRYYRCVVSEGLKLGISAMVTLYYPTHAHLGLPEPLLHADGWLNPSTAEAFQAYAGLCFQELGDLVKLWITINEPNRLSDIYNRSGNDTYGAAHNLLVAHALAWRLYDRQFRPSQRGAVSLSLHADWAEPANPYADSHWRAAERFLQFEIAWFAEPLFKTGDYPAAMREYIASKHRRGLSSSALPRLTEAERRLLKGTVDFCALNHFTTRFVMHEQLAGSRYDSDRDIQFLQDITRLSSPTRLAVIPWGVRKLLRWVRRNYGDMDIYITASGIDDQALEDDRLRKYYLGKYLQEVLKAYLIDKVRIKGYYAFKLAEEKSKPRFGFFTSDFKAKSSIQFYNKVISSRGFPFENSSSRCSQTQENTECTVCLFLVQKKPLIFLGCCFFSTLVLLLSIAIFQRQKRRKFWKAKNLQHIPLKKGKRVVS

GLP-1 acceptor [2] = biological target: T1, GLP-1 acceptor; remark: listed apart in the source

Chain of GCG acceptor (P47871 26-477 limits assumed): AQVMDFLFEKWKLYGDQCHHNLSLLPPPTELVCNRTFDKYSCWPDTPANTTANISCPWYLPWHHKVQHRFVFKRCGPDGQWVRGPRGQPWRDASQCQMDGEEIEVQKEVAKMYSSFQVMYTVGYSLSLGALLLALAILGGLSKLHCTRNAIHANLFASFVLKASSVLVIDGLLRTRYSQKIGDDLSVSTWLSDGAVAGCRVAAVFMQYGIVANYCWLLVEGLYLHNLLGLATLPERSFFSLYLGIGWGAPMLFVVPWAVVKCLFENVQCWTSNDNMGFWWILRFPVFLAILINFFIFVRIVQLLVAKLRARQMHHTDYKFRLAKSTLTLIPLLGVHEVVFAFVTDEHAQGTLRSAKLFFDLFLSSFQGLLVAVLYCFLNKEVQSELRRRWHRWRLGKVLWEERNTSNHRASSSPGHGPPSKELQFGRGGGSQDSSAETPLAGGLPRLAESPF

HSQGTFTSDYSKYLDEQAAKEFIAWLMNT [GLP/GCG#15]
EC50, cAMP accumulation assay; Transient cell line, n = 1 (GCG acceptor): 0.424 nM | EC50, cAMP accumulation assay; Transient cell line, n = 1 (GLP-1 acceptor [1]): 0.016 nM

YGEGTFISDYSIAMDKIHQQDFVNWLLAQKGKKNDWKHNITQ [GIP#1]
EC50, cAMP accumulation assay; Transient cell line, n = 3 (GIP acceptor): 0.0175 nM

YSEGTFISDYSIAMDKIHQQDFVNWLLAQKGKKNDWKHNITQ [GIP#2]
EC50, cAMP accumulation assay; Stable cell line, n = 2 (GIP acceptor): 0.012 nM | EC50, cAMP accumulation assay; Transient cell line, n = 3 (GIP acceptor): 0.00663 nM

FSEGTFISDYSIAMDKIHQQDFVNWLLAQKGKKNDWKHNITQ [GIP#5]
EC50, cAMP accumulation assay; Transient cell line, n = 1 (GIP acceptor): 0.0819 nM

YGEGTFISDYSIAMDKIRQQDFVNWLLAQKGKKNDWKHNITQ [GIP#7]
EC50, cAMP accumulation assay; Transient cell line, n = 1 (GIP acceptor): 0.0769 nM

HGQGTFTSDYSKYLDEQAAKEFIAWLMNT [GLP/GCG#3]
EC50, cAMP accumulation assay; Transient cell line, n = 1 (GCG acceptor): > 5 nM | EC50, cAMP accumulation assay; Transient cell line, n = 1 (GLP-1 acceptor [1]): 0.013 nM

B1: FGF#1 (ligand)
chain: HPIPDSSPLLQFGGQVRQRYLYTDDAQQTEAHLEIREDGTVGGAADQSPESLLQLKALKPGVIQILGVKTSRFLCQRPDGALYGSLHFDPEACSFREEIRPDGYNVYQSEAHGLPLHLPGNKSPHRDPAPRGPARFLPLPGLPPALPEPPGILAPQPPDVGSSDPLSMVTGLEANRSPSYES
EC50, FGFR1/KLB functional assay; n = 2 (FGFR1/KLB acceptor): 21 nM

B2: FGF#5 (ligand)
chain: HPIPDSSPLLQFGGQVRQVYLYTDDAQQTEAHLEIREDGTVGGAADQSPESLLQLKALKPGVIQILGVKTSRFLCQRPDGALYGSLHFDPEACSFREDLKEDGYNVYQSEAHGLPLHLPGNKSPHRDPAPRGPARFLPLPGLPPALPEPPGILAPQPPDVGSSDPLSMVEGSQGRSPSYES
EC50, FGFR1/KLB functional assay; n = 2 (FGFR1/KLB acceptor): 22.3 nM

B3: FGF#7 (ligand)
chain: HPIPDSSPLLQFGGQVRQVYLYTDDAQQTEAHLEIREDGTVGGAADQSPESLLQLKALKPGVIQILGVKTSRFLCQRPDGALYGSLHFDPEACSFREDLKEDGYNVYQSEAHGLPLHLPGNKSPHRDPAPRGPARFLPLPGLPPALPEPPGILAPQPPDVGSSDPLRLVEPSQLRSPSFE
EC50, FGFR1/KLB functional assay; n = 2 (FGFR1/KLB acceptor): 17.7 nM

B4: FGF#9 (ligand)
chain: HPIPDSSPLLQFGGQVRQVYLYTDDAQQTEAHLEIREDGTVGGAADQSPESLLQLKALKPGVIQILGVKTSRFLCQRPDGALYGSLHFDPEACSFRERLLEDGYNVYQSEAHGLPLHLPGNKSPHRDPAPRGPARFLPLPGLPPALPEPPGILAPQPPDVGSSDPLSMVEGSQGRSPSYES
EC50, FGFR1/KLB functional assay; n = 2 (FGFR1/KLB acceptor): 19.1 nM

HSEGTFTSDVSSYLEGQAAQEFIAWLVNGR [GLP#1]
EC50, cAMP accumulation assay; Transient cell line, n = 1 (GLP-1 acceptor [2]): 0.159 nM

HGEGTFTSDVSEYLEKQAAKEFIAWLVNGR [GLP#3]
EC50, cAMP accumulation assay; Transient cell line, n = 2 (GLP-1 acceptor [2]): 0.00225 nM

HSEGTFTSDVSSYLEEQAAKEFIAWLVKGGG [GLP#5]
EC50, cAMP accumulation assay; Transient cell line, n = 1 (GLP-1 acceptor [2]): 0.00752 nM

HSEGTFTSDVSEYLEKQAAKEFIAWLVKGR [GLP#6]
EC50, cAMP accumulation assay; Transient cell line, n = 2 (GLP-1 acceptor [2]): 0.0015 nM

HGEGTFTSDVSEYLEKQAAKEFIAWLVRGRG [GLP#7]
EC50, cAMP accumulation assay; Transient cell line, n = 1 (GLP-1 acceptor [2]): 0.023 nM

HGEGTFTSDVSSYLEEQAAKEFIAWLVRGRG [GLP#8]
EC50, cAMP accumulation assay; Transient cell line, n = 2 (GLP-1 acceptor [2]): 0.00195 nM

HGEGTFTSDVSSYLEEQAAKEFIAWLVKGGG (ends and bridges not checked) [GLP#9]
EC50, cAMP accumulation assay; Stable cell line, n = 4 (GLP-1 acceptor [2]): 0.00208 nM | EC50, cAMP accumulation assay; Transient cell line, n = 3 (GLP-1 acceptor [2]): 0.00071 nM

HGEGTFTSDVSEYLEKQAAQEFIAWLVKGR [GLP#10]
EC50, cAMP accumulation assay; Transient cell line, n = 2 (GLP-1 acceptor [2]): 0.00826 nM
